Results from US20170260274A1 (LUTANA, published 2017).

Key:
[1] = target: T1, epidermal growth factor receptor (EGFR) (human, UniProt P00533 25-1210); assay: flow cytometry, equilibrium binding on EGFR-expressing A431 cells (apparent KD)
T1 construct: whole, on cells; Endogenous EGFR on human tumor cell lines; also called target antigen
Procedure: Detection of bound antibody or immunoRNase was performed using murine anti-c-myc monoclonal antibody clone 9E10 (Roche, Penzberg, Germany) and goat-anti-mouse fluorescein isothiocyanate (FITC) conjugate (Jackson ImmunoResearch, Suffolk, UK). Fluorescence of stained cells was measured on a FACS Canto II flow cytometer (Becton Dickinson) using the FACS Diva Software (Becton Dickinson). Background fluorescence was substracted from measured median fluorescence and relative affinities were calculated by nonlinear regression using GraphPad Prism 5.0 (GraphPad Software, La Jolla, Calif., USA).

[2] = target: T1, epidermal growth factor receptor (EGFR); assay: cell-based or functional assay

B1: humanized anti-epidermal growth factor receptor (EGFR) scFv IZI08 (scFv)
scFv: EVQLVESGGGLVQPGGSLRLSCAASGFSLTNYGVHWVRQAPGKGLEWLGVIWSGGNTDYNTPFTSRFTISRDNSKNTLYLQMNSLRAEDTAVYYCARALTYYDYEFAYWGQGTTVTVSSGGGGSGGGGSGGGGSDIQLTQSPSFLSASVGDRVTITCRASQSIGTNIHWYQQKPGKAPKLLIKYASESISGVPSRFSGSGSGTEFTLTISSLQPEDFATYYCQQNNNWPTTFGAGTKLEIKR
notes: Expressed in E. coli periplasm, monomer purified by SEC; also called anti-EGFR scFv; anti-EGFR scFv IZI08; not shown: C-terminal c-myc tag; C-terminal hexahistidine tag
B1 was tested, and the Kd [1] was 9.6 nM, the “IC50 (nM), cell viability, A431” value [2] was > 3620 nM and the “IC50 (nM), cell viability, HNO97” value [2] was > 3620 nM. For the same binder, the “IC50 (nM), cell viability, HNO211” value [2] was > 3620 nM and the “IC50 (nM), cell viability, HNO410” value [2] was > 3620 nM.

B2: Ranpirnase-GS-scFv (other)
chain: QDWLTFQKKHITNTRDVDCDNIMSTNLFHCKDKNTFIYSRPEPVKAICKGIIASKNVLTTSEFYLSDCNVTSRPCKYKLKKSTNKFCVTCENQAPVHFVGVGSCGGGGSGGGGSGGGGSEVQLVESGGGLVQPGGSLRLSCAASGFSLTNYGVHWVRQAPGKGLEWLGVIWSGGNTDYNTPFTSRFTISRDNSKNTLYLQMNSLRAEDTAVYYCARALTYYDYEFAYWGQGTTVTVSSGGGGSGGGGSGGGGSDIQLTQSPSFLSASVGDRVTITCRASQSIGTNIHWYQQKPGKAPKLLIKYASESISGVPSRFSGSGSGTEFTLTISSLQPEDFATYYCQQNNNWPTTFGAGTKLEIKR
modifications: Q* at position 1 of SEQ ID NO:4 stands for a pyroglutamate (as printed for Ranpirnase)
notes: also called Ranpimase-GS-scFv; immunoRNase Ranpirnase-GS-scFv; not shown: C-terminal c-myc tag; C-terminal hexahistidine tag
For B2, the Kd [1] was 14.7 nM, the “IC50 (nM), cell viability, A431” value [2] was > 3620 nM and the “IC50 (nM), cell viability, HNO97” value [2] was 1260 nM. The “IC50 (nM), cell viability, HNO211” value [2] was 1420 nM and the “IC50 (nM), cell viability, HNO410” value [2] was 2520 nM.
